Each block holds one binder with its values, some of them ahead of it.
Tests used:
[1] = molecular target: T1, purified normal human C1q (human, UniProt P02745 23-245; P02746 28-253; P02747 29-245); assay: SPR; C1q immobilised on CM5 dextran sensor chip; HMGB1 proteins passed over at 1.8, 0.9, 0.45, 0.23 and 0.11 µM; BIAcore 2000; settings: both partners purified
T1 construct: Complement C1q subcomponent subunit A, human; Complement C1q subcomponent subunit B, human; Complement C1q subcomponent subunit C, human; Used purified (ELISA, SPR) and in 10% normal human serum (microspheres); also called serum C1q; C1q protein; source: bought: Sigma (purified normal human C1q); endogenous, normal human serum; copies: + +

[2] = molecular target: T1, purified normal human C1q; assay: SPR; reciprocal: HMGB1 WT (R&D), A box or B box (10 µg/ml) immobilised on CM5 chip in 10 mM sodium acetate pH 4.0; C1q in HBS-EP (10 mM HEPES, 150 mM NaCl, 3.4 mM EDTA, 0.05% Tween 20, pH 7.4) at 200, 100, 50, 25 and 12.5 nM, 20 µl/min for 3 min; BIAcore 2000; settings: both partners purified

T1 sequence (P02745 23-245, chain 1 of 3): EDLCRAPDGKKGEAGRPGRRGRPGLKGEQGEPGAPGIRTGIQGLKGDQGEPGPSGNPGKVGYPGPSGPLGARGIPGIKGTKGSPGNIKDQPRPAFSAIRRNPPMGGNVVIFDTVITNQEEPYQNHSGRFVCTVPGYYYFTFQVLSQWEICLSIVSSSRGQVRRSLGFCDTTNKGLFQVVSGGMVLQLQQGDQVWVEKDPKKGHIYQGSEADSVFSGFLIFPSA
T1 sequence (P02746 28-253, chain 2 of 3): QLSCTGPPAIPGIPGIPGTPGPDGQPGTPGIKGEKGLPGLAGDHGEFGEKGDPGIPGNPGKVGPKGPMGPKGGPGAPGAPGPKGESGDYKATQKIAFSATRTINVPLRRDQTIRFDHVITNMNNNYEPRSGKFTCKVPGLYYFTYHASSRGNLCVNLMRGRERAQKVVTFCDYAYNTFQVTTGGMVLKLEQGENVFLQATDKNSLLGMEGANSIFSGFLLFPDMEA
T1 sequence (P02747 29-245, chain 3 of 3): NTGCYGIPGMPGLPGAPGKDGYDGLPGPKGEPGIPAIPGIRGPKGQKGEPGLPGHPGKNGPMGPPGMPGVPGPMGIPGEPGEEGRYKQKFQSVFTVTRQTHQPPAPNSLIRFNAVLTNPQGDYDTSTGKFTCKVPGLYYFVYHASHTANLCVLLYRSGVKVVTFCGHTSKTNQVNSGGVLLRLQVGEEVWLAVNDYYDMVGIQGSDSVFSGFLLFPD

Kd [1]: ~4 µM
B1: HMGB1 box B (aa 88-162) (domain or fragment, human, UniProt P09429 88-162, looked up)
chain: KFKDPNAPKRPPSAFFLFCSEYRPKIKGEHPGLSIGDVAKKLGEMWNNTAADDKQPYEKKAAKLKEKYEKDIAAY
notes: HMGB1, human, B box, aa 88-162; Subcloned into pRSET B; also called HMGB1 B box; B box; source: E. coli BL21 (DE3) pLysE, purified

Kd [2]: ~0.4 µM
B2: HMGB1 produced in NS0 mouse myeloma cell line (Euk-HMGB1, R&D Systems) (natural protein, human, UniProt P09429 1-215, looked up)
chain: MGKGDPKKPRGKMSSYAFFVQTCREEHKKKHPDASVNFSEFSKKCSERWKTMSAKEKGKFEDMAKADKARYEREMKTYIPPKGETKKKFKDPNAPKRPPSAFFLFCSEYRPKIKGEHPGLSIGDVAKKLGEMWNNTAADDKQPYEKKAAKLKEKYEKDIAAYRAKGKPDAAKKGVVKAEKSKKKKEEEEDEEDEEDEEEEEDEEDEDEEEDDDDE
notes: High-mobility group box 1 (HMGB1), human, produced in mouse myeloma cell line NS0; No catalogue number is printed; also called HMGB1 WT (R&D); source: bought: R&D Systems (produced in NS0 mouse myeloma cell line)

Kd [1]: ~4 µM
B3: HMGB1 box A (aa 1-79) (domain or fragment, human, UniProt P09429 1-79, looked up)
chain: MGKGDPKKPRGKMSSYAFFVQTCREEHKKKHPDASVNFSEFSKKCSERWKTMSAKEKGKFEDMAKADKARYEREMKTYI
notes: HMGB1, human, A box, aa 1-79; Subcloned into pRSET B; also called HMGB1 A box; A box; source: E. coli BL21 (DE3) pLysE, purified
